To fix the notation:
T1: GST-Atxn1-86Q (UniProt P54253 1-815)
T1 chain: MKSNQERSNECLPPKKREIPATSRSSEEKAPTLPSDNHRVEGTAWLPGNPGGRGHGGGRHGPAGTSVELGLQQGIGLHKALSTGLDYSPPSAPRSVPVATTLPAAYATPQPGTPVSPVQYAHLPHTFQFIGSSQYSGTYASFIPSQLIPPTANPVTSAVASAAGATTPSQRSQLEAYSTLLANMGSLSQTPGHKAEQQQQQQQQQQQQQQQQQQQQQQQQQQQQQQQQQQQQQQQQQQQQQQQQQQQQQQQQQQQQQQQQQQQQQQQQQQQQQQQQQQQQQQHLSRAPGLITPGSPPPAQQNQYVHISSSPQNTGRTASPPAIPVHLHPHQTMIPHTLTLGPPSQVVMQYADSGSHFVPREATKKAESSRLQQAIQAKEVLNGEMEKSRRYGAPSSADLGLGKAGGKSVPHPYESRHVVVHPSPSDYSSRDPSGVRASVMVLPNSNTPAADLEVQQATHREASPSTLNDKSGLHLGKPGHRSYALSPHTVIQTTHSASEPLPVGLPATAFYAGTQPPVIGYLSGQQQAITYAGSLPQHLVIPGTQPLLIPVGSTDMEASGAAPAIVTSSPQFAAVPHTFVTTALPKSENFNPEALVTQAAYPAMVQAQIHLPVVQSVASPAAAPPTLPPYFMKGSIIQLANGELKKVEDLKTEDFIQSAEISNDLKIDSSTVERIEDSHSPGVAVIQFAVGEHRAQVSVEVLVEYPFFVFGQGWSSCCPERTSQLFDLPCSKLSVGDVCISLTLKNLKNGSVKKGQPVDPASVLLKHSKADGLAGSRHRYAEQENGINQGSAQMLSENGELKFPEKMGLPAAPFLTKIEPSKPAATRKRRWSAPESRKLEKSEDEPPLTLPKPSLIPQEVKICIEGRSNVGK

T2: GST-Htt-20Q
T2 chain: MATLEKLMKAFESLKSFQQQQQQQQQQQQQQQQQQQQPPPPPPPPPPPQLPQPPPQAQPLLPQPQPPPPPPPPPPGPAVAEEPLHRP

T3: GST-Atxn1-33Q (UniProt P54253 1-815)
T3 chain: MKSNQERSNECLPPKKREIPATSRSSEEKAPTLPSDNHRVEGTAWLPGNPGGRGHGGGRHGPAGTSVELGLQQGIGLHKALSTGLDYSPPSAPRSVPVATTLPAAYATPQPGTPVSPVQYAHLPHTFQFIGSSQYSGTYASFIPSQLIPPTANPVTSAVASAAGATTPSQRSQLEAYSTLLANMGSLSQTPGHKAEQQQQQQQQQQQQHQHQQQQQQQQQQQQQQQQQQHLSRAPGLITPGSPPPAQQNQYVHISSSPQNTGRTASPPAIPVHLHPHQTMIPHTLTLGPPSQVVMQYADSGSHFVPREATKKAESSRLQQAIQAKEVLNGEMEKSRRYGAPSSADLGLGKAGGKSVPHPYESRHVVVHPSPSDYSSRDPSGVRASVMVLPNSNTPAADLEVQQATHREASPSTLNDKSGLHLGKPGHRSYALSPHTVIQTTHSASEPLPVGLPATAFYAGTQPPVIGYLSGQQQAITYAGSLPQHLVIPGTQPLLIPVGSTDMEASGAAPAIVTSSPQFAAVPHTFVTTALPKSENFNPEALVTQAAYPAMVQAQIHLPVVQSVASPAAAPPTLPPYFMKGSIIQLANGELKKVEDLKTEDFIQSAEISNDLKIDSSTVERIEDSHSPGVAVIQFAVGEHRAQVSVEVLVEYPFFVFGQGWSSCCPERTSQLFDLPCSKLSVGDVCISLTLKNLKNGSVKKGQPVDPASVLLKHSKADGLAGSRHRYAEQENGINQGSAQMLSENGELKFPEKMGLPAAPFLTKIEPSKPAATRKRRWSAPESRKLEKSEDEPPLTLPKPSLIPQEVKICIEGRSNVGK

B1: PQBP5-Δ2 (protein)
chain: PRTRNRVGLLDCALNSVTADSEINSLPTISALKFNGALTMAVGTTTGQVLLYDLRSDKPLLVKDHQYGLPIKSVHFQDSLDLILSADSRIVKMWNKNSGKIFTSLEPEHDLNDVCLYPNSGMLLTANETPKMGIYYIPVLGPAPRWCSFLDNLTEELEENPESTVYDDYKFVTKKDLENLGLTHLIGSPFLRAYMHGFFMDIRLYHKVKLMVNPFAYEEYRKDKIRQKIEETRAQRVQLKKLPKVNKELALKLIEEEEEKQKSTWKKKVKSLPNILTDDRFKVMFENPDFQVDEESEEFRLLNPLVSKISEKRKKKLRLLEQQELREKEEEEEPEGKPSDAESSESSDDEKAWVEEVRKQRRLLQQEEKVKRQERLKEDQQTVLKPQFYEIKAGEEFRSFKDSATKQKLMNKTLEDRLKIEAKNGTLSVSDTTVGSKQLTFTLKRSEQQKKQQEAEKLHRQERKRLRRSAGHLKSRHKRGRSFH
modifications: Delta number assigned from the order of the constructs in the methods; initiator Met from the primer and tag omitted.
B2: PQBP5-Δ5 (protein)
chain: MQVSSLNEVKIYSLSCGKSLPEWLSDRKKRALQKKDVDVRRRIELIQDFEMPTVCTTIKVSKDGQYILATGTYKPRVRCYDTYQLSLKFERCLDSEVVTFEILSDDYSKIVFLHNDRYIEFHSQSGFYYKTRIPKFGRDFSYHYPSCDLYFVGASSEVYRLNLEQGRYLNPLQTDAAENNVCDINSVHGLFATGTIEGRVECWDPRTRNRVGLLDCALNSVTADSEINSLPTISALKFNGALTMAVGTTTGQVLLYDLRSDKPLLVKDHQYGLPIKSVHFQDSLDLILSADSRIVKMWNKNSGKIFTSLEPEHDLNDVCLYPNSGMLLTANETPKMGIYYIPVLGPAPRWCSFLDNLTEELEENPESTVYDDYKFVTKKDLENLGLTHLIGSPFLRAYMHGFFMDIRLYHKVKLMVNPFAYEEYRKDKIRQKIEETRAQRVQLKKLPKVNKELALKLIEEEEEKQKSTWKKKVKSLPNILT
modifications: Delta number assigned from the order of the constructs in the methods (fifth: 1-481, lacking NUC153); tag omitted.
B3: PQBP5-Δ1 (protein)
chain: TYQLSLKFERCLDSEVVTFEILSDDYSKIVFLHNDRYIEFHSQSGFYYKTRIPKFGRDFSYHYPSCDLYFVGASSEVYRLNLEQGRYLNPLQTDAAENNVCDINSVHGLFATGTIEGRVECWDPRTRNRVGLLDCALNSVTADSEINSLPTISALKFNGALTMAVGTTTGQVLLYDLRSDKPLLVKDHQYGLPIKSVHFQDSLDLILSADSRIVKMWNKNSGKIFTSLEPEHDLNDVCLYPNSGMLLTANETPKMGIYYIPVLGPAPRWCSFLDNLTEELEENPESTVYDDYKFVTKKDLENLGLTHLIGSPFLRAYMHGFFMDIRLYHKVKLMVNPFAYEEYRKDKIRQKIEETRAQRVQLKKLPKVNKELALKLIEEEEEKQKSTWKKKVKSLPNILTDDRFKVMFENPDFQVDEESEEFRLLNPLVSKISEKRKKKLRLLEQQELREKEEEEEPEGKPSDAESSESSDDEKAWVEEVRKQRRLLQQEEKVKRQERLKEDQQTVLKPQFYEIKAGEEFRSFKDSATKQKLMNKTLEDRLKIEAKNGTLSVSDTTVGSKQLTFTLKRSEQQKKQQEAEKLHRQERKRLRRSAGHLKSRHKRGRSFH
modifications: Delta number assigned from the order of the constructs in the methods; initiator Met from the primer and tag omitted. Exon 1 ends at ...LHRP, which agrees with the printed Htt reverse primer. The entry carries 21Q (18-38); one Q is removed to give the 20Q of the assayed protein name. The plasmid is called 17Q, so the repeat count is ambiguous. GST omitted.
B4: PQBP5-Δ2 (protein)
chain: B1 chain
modifications: Delta number assigned from the order of the constructs in the methods; initiator Met from the primer and tag omitted. Exon 1 ends at ...LHRP, which agrees with the printed Htt reverse primer. The entry carries 21Q (18-38); one Q is removed to give the 20Q of the assayed protein name. The plasmid is called 17Q, so the repeat count is ambiguous. GST omitted.
B5: PQBP5-Δ3 (protein)
chain: IPVLGPAPRWCSFLDNLTEELEENPESTVYDDYKFVTKKDLENLGLTHLIGSPFLRAYMHGFFMDIRLYHKVKLMVNPFAYEEYRKDKIRQKIEETRAQRVQLKKLPKVNKELALKLIEEEEEKQKSTWKKKVKSLPNILTDDRFKVMFENPDFQVDEESEEFRLLNPLVSKISEKRKKKLRLLEQQELREKEEEEEPEGKPSDAESSESSDDEKAWVEEVRKQRRLLQQEEKVKRQERLKEDQQTVLKPQFYEIKAGEEFRSFKDSATKQKLMNKTLEDRLKIEAKNGTLSVSDTTVGSKQLTFTLKRSEQQKKQQEAEKLHRQERKRLRRSAGHLKSRHKRGRSFH
modifications: Delta number assigned from the order of the constructs in the methods; initiator Met from the primer and tag omitted. Exon 1 ends at ...LHRP, which agrees with the printed Htt reverse primer. The entry carries 21Q (18-38); one Q is removed to give the 20Q of the assayed protein name. The plasmid is called 17Q, so the repeat count is ambiguous. GST omitted.
B6: full-length human PQBP5 (His-tag fusion protein) (natural protein)
chain: MQVSSLNEVKIYSLSCGKSLPEWLSDRKKRALQKKDVDVRRRIELIQDFEMPTVCTTIKVSKDGQYILATGTYKPRVRCYDTYQLSLKFERCLDSEVVTFEILSDDYSKIVFLHNDRYIEFHSQSGFYYKTRIPKFGRDFSYHYPSCDLYFVGASSEVYRLNLEQGRYLNPLQTDAAENNVCDINSVHGLFATGTIEGRVECWDPRTRNRVGLLDCALNSVTADSEINSLPTISALKFNGALTMAVGTTTGQVLLYDLRSDKPLLVKDHQYGLPIKSVHFQDSLDLILSADSRIVKMWNKNSGKIFTSLEPEHDLNDVCLYPNSGMLLTANETPKMGIYYIPVLGPAPRWCSFLDNLTEELEENPESTVYDDYKFVTKKDLENLGLTHLIGSPFLRAYMHGFFMDIRLYHKVKLMVNPFAYEEYRKDKIRQKIEETRAQRVQLKKLPKVNKELALKLIEEEEEKQKSTWKKKVKSLPNILTDDRFKVMFENPDFQVDEESEEFRLLNPLVSKISEKRKKKLRLLEQQELREKEEEEEPEGKPSDAESSESSDDEKAWVEEVRKQRRLLQQEEKVKRQERLKEDQQTVLKPQFYEIKAGEEFRSFKDSATKQKLMNKTLEDRLKIEAKNGTLSVSDTTVGSKQLTFTLKRSEQQKKQQEAEKLHRQERKRLRRSAGHLKSRHKRGRSFH
modifications: Exon 1 ends at ...LHRP, which agrees with the printed Htt reverse primer. The entry carries 21Q (18-38); one Q is removed to give the 20Q of the assayed protein name. The plasmid is called 17Q, so the repeat count is ambiguous. GST omitted.
B7: PQBP5-Δ5 (protein)
chain: B2 chain
modifications: Delta number assigned from the order of the constructs in the methods (fifth: 1-481, lacking NUC153); tag omitted. Exon 1 ends at ...LHRP, which agrees with the printed Htt reverse primer. The entry carries 21Q (18-38); one Q is removed to give the 20Q of the assayed protein name. The plasmid is called 17Q, so the repeat count is ambiguous. GST omitted.
B8: PQBP5-Δ3 (protein)
chain: B5 chain
modifications: Delta number assigned from the order of the constructs in the methods; initiator Met from the primer and tag omitted.

What is called Kd is the free concentration of one partner at which half of the binding sites on the other are occupied at equilibrium, for simple one-to-one binding.

For one experiment, the target named is T1, GST-Atxn1-86Q. The experiment can be described thus: SPR. (SPR reads the build-up and loss of mass on a sensor chip optically.)
Consider B1, for which binding was characterised by a dissociation constant (Kd) of 183 nM.
For the molecule B2, the Kd turned out to be 0.128 nM.

The target of the next experiment is T2, GST-Htt-20Q. The experiment can be described thus: SPR.
B3 came in with a dissociation constant Kd of 2.67 nM.
Consider B4, for which the dissociation constant (Kd) was 463 nM.
As to B5, the Kd was 402 nM.
With B6, the Kd was 0.0308 nM.
Take B7: binding was put at a Kd of 0.354 nM.

The target of a further experiment is T3, GST-Atxn1-33Q. The experiment can be described thus: SPR.
The molecule B1 displayed a Kd of 830 nM.
Turning to B8, the affinity, expressed as Kd, was 255 nM.
For the molecule B2, binding was characterised by a dissociation constant (Kd) of 0.194 nM.
